assay: yeast display, Sf9 membrane polyspecificity reagent, FACS + sequencing; frameworks hold sequencing errors
In short: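 Synthetic nanobody libraries on Saccharomyces cerevisiae BJ5465 were galactose-induced for 36–48 hours, stained 1 hour at 4 °C with 10% biotinylated, detergent-solubilized Sf9 membrane reagent and enriched on streptavidin microbeads. FACS then separated cells into low and high (top ~1%) gates by anti-HA (expression) and streptavidin (reagent binding) fluorescence. Genes were colony-PCR amplified, MiSeq 2 × 250 sequenced and CDR-length filtered. A clone's polyreactivity label is that of its gate of origin.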

Sequence	polyreactivity (PSR sort gate)
QVQLVESGGGLVQAGGSLRLSCAASGIIFGYNAMGWYRQAPGKERELVAAINQDGSSTYYADSVKGRFTISRDNAKNTVYLQMNSLKPEDTAVYYCNARGVPRQDARMGYWGQGTQVTVSS	low polyreactivity
QVQLVESGGGLVQAGGSLRLSCAASGNIFTQYGMGWYRQAPGKERELVAAISRRGGSTYYADSVKGRFTISRDNAKNTVYLQMNSLNPEDTAVYYCARRTNRPPWGFEYWGQGTQVTVSS	high polyreactivity
QVQLVESGGALVQAGGSLRLSCAASGSTLRANAMGWYRQAPGKERELVARITSGGSTYYADSVKGRFTISRDNAKNTVYFQMNSLKPEDTAVYYCAATYKLAYRRGYWGQGTQVTVSS	high polyreactivity
QVNLVESGGGLVQAGGSLRLSCAASGSIFSKNAMGWYRQAPGRERELVAAITSGASTNYADSVKGRFTISRDNAKNTVYLQMNSLKPEDTAVYYCASKRNGFWYGYWGQGTHVTVSS	low polyreactivity
QVQLVESGGGLVQAGGSLRLSCAASGSTFWRYAMGWYRQAPGKERELVAGITWNGGSTYYADSVKGRFTISRDNAKNTVYLQMNCLIPEDTAVYYCAARRSWGYIYRLGYGMDYWGQGTQVTVSS	high polyreactivity
QVQLVESGGGLVQAGGSLRLSCAASGFTFSRYVMGWYRQAPGKERELVATISSDGDDTYYADSVKGRFTISRDNAKNTVYLQMNSLKPEDTAVYYCAAESYTYYADYGYGYWGQGTQVTVSS	high polyreactivity
QVQLVESGGGLFQAGGSLRLSCAASGSTFKFNAMGWYRQAPGKEWELVAAISNRGGTTYYADSVKGRFTISRDNAKNTVYLLMNSLKQEDTAVYYCAAGRVQYYYFWGQGTQVTVSS	high polyreactivity
QVQLVESGAGLVQAGGSLRLSCAASGIIFPFYAMGWYRQAPGKEMELVAAITSDGNTNYADSVKGRFTFSRDNAKNTVYLQMNSLKPVDTAVYYCNAETQYAVLSWHSTRHDYWGQGTQVTLSS	low polyreactivity
QVQLVESGGGLVQAGGSLSLSCASSANIFGVYAKGWYRQPPGKERELVAAIRYSTVSTYYADSVKGRFTISRDNAKNTVYLQLHSLKPEDTAVFYCAAQRRLYLPGHYYYWGQGTQVTVSS	high polyreactivity
QVQLVESGGGLVQAGGSLRLSCAASGRIFANNAMGWYRQAPGKERELVAAINWSGSRTYYADSVKGRFTISRDNAKNTVYLQMNSLNPEDTAVYYCAAVGRWGVTGSHHDAYDYWGQGTQVTVSS	high polyreactivity
QVQHVESGGGLVQAGGSLRLSCSASGRTFSSYVMGWYRQAPGKERELVATITSGGITYYADSVKGRFTISRDNAKNTVYLQMNSLKPEDTAVYYCARAPPGDRFVRYDYWGQGTQVTVSS	high polyreactivity
QVQLVESGGGLVQAGGSLRLSCAASGFTFERYTMGWYRPAPGKERELVATISRRSGRTSYADSVKGRFTISRDNAKNTVYLQMNSLKPEDTAVYYCAVDDAYPDRYDYWGQGTQVTVSS	high polyreactivity
QVQLVESGGCLVQAGGSLRLSCAASGFTFYRSVMGWYRQAPGKERELVAAITSDGGSTYYAVSVKGRFTISRDNGKNTVYLQMNSLKPEDTAVYYCSADASTWYTEEYWGQGNQVTVSS	low polyreactivity
QVQLVESGGGLVQAGGSLRLSCAASGFTFWRNAMGWYRQAPGKERELVAAISSGTGRTYYADSVKGRFTISRDNAKYTVYLQMNSLKPEDTAVYYCAKVNWRTSYGTSTRDYWGQGTQVTVSS	low polyreactivity
QVQLVESGGGLVQAGGSLRISCAASGITFYANTMGWYRQAPGKEREFVAAISGIGGSTYYADSVKGRFAISRDNAKNTVYLQMNSLKPEDPAVYYCNADVYYFLFGTFDYWGQGTQVTVSS	low polyreactivity
QVQLVESGGGLVQAGGSLRLSFAATGSILLRYAMGWYRQAPGKERELVAAISYDGGGTFYADSVKGRFTISRDNAKNTVYLQMHSLKPEDTAVYYCAARVIFRVKGLEYWGQGTQVTVSS	low polyreactivity

Sequence	polyreactivity (PSR sort gate)
QVQLVESGGGLVQAGGSLRLSCAASGFIFAEYAMGWYRQAPGKERELVVAIDVGGGSTYYADSVKGRFTISRDNAKNTVYLQMNSLKPEDTAVYYCAATQYGYWVPYQGFDYWGQGTQVTVSS	low polyreactivity
QVQLVESGGGLVQAGGSLRLSCAASGRIFSRYAMGWYRQAPGKERELVAAISWSGGSTYYADSVKGRFTISRDKAKNTVYLQMNSLKPEDTAVYYCAAKRQYTEYNYWGQGTQVTVSS	high polyreactivity
QVQHVESGGGLVQAGGSLRLSCAASGSIIPSNVMGWYRQTPGKDRELVAAISNTGSTNYADSVKGRFTISRDNAKNSVYLQMNSLKPEDTAVYYCNADASYGFWSLLDYDYWGQGTQVTVSS	low polyreactivity
QVQLQESGGGLVQAGGSLRLSCAASGTISYPRTMGWYRQAPGKEREFVAGIGVGGTTYYADSVKGRFTISRDNAKYTVYLQMNILKPEDAAVYYCAVAAYYDKYYVYWGQGTQVTVSF	low polyreactivity
QVQLVESGGGLVQAGGSLRLSCAASGFTFDIYGMGWYRQAPGKERELVASITSRSARTYYADSVKGRFTISRYNAKNTVYLQMNSLKPEDTAVYYCAADTTIKRKYLAIRGYWGQGTQVTVSS	high polyreactivity
QVQLVESGGCLVQAGGSLRFICAASGRIFDDNAMGWYRPAPGKERELVATISSTGGRTYYADSLKGRFTISRDNAKNNVYLQMNSLKPEDTAVYYCAARRRQGGYYYWGQGTQVTVSS	high polyreactivity
QVQLVESGGGLVQAGGSLRLSCAASGFTFRQYSMGWYRQARGKERELVAGISSSGGSTRYADSVKGRFTISRDNAKNTVYFQMNSLKPEDTAVYYCAARIASHHYYYWGQVTQVTVSS	high polyreactivity
QVQLVESGGGLVQAGGSLRLSCAASGSIFAGYAMGWYRKAPGKERELVAVISSTGSTYYADSVKGRFTISRDNAKNTVYLQMNSLKTEDTAVYYCNAYRYWSPGYDYWGQGTQVTVSS	low polyreactivity
QVQLVESGGGLVQAGGSLRLSCAASGRTFLPYAMGWYRQPPWKERELVAAISYRGVSTYYADSVKGRFTISRDNAKYSVYLQMNSLKAEDTAVYYCAARSWANYDFWGHGTQVTVSS	high polyreactivity
QVQLVESGGGLVQAGGSLRLSCAASGSTLFAYAMGWYRQAPGTERELVAAITSGASTNYADSVKGRFTISRDNAKNTVYLQMNSLKPEDTAVYYCAKDVSGTNPDYDYWGQGTQVTVSS	low polyreactivity
QVQLVESGGGLVQAGGSLRLSCAASGFIFQGYVMGRYRQAPGKVREFVAAISRSGGTTFYADSVKGRFTISRDNAKNPVYLQMNSLKPEDTAVYYCNRAPLGRPGYDYWGPGTQVTVSS	high polyreactivity
QVQLVESGGGLVQAGGSLRLSCAASGRIFGYYAMGWYRQAPGKERELVAAISTRGTSTYYADSVKGRFTISRDNAKNTVYLQMNSLKPEDTAVYYCARGFPPYRGTHMNYWGQGTQVTVSS	high polyreactivity
QVQLVESGAGLVQAGGSLRLSCAASGFIFYIYAMGWYRQAPGKEREFVAVISSSGGITYYADSVKGRFTISRDNAKNTFYLQMNSLKPEDTAVYYCARDTEGKYVGYGRGGYWGQGTQVTVSS	low polyreactivity
QVQLVESGGGLVQAGGSLRLSCAASGFTFANPMGWYRQAPGKERELVAAISSGGGSTYYADSVKGRFTISRDNAKNTVYLQMNSLKPEDTAVYYCAAGYGTLDWWEDYWGQGTQVTVSS	high polyreactivity
QVQLVESGGGLVEAGGSLRLSCAASGSNFPWNAMGWSIQAPGKESDLVAGISSRGGSTYYADSVKGRFTISRDNAKNTVYLQMNSLKPEDTAVYYCNAAAVRRGRLVKLDYWGQGTQVTVSS	high polyreactivity
QVQLVESGGGLVQAGGSLRLSCAASGSTFKQYAMGWYRQAPGKERELVAAISTIGGSTYYADSVKGRFTISRDNAKITVYLQMNSLKPEDTAVYYCAAEYWYIWPYNYWGLGTQVTVSS	high polyreactivity

Reference: the nanobody polyreactivity screen of Harvey et al. (2022)
